Experiment [1] addresses βTrCP1 (UniProt Q9Y297). In words: co-immunoprecipitation. The settings on record: reference: ATF4 wild type; sites S219.
The target of experiment [2] is βTrCP1 (UniProt Q9Y297). The experiment is described as follows: anti-Myc co-IP, anti-Flag blot. The settings on record: reference: Myc-ATF4-WT with Flag-CK1δ; sites S219.

We go through 2 substances from paper PMC8516343.

Take ATF4 (from UniProt P18848) ATF4-S219A: the “binding against the reference” value with βTrCP1 [1] is on record as “lost”.
Consider “ATF4 (from UniProt P18848) Myc-ATF4-S219A with Flag-CK1δ”, for which the “binding against the reference” value with βTrCP1 [2] was “weaker”.
